This data set concerns blue pigment (indigo/indirubin) production. To be noted: 2-liter flask containing 300 ml of TB medium for the triple mutant.

B1: WT: wild-type cytochrome P450 monooxygenase BM-3 from Bacillus megaterium (SEQ ID NO:2) (protein, listed as Bacillus megaterium)
chain: TIKEMPQPKTFGELKNLPLLNTDKPVQALMKIADELGEIFKFEAPGRVTRYLSSQRLIKEACDESRFDKNLSQALKFVRDFAGDGLFTSWTHEKNWKKAHNILLPSFSQQAMKGYHAMMVDIAVQLVQKWERLNADEHIEVPEDMTRLTLDTIGLCGFNYRFNSFYRDQPHPFITSMVRALDEAMNKLQRANPDDPAYDENKRQFQEDIKVMNDLVDKIIADRKASGEQSDDLLTHMLNGKDPETGEPLDDENIRYQIITFLIAGHETTSGLLSFALYFLVKNPHVLQKAAEEAARVLVDPVPSYKQVKQLKYVGMVLNEALRLWPTAPAFSLYAKEDTVLGGEYPLEKGDELMVLIPQLHRDKTIWGDDVEEFRPERFENPSAIPQHAFKPFGNGQRACIGQQFALHEATLVLGMMLKHFDFEDHTNYELDIKETLTLKPEGFVVKAKSKKIPLGGIPSPSTEQSAKKVRKKAENAHNTPLLVLYGSNMGTAEGTARDLADIAMSKGFAPQVATLDSHAGNLPREGAVLIVTASYNGHPPDNAKQFVDWLDQASADEVKGVRYSVFGCGDKNWATTYQKVPAFIDETLAAKGAENIADRGEADASDDFEGTYEEWREHMWSDVAAYFNLDIENSEDNKSTLSLQFVDSAADMPLAKMHGAFSTNVVASKELQQPGSARSTRHLEIELPKEASYQEGDHLGVIPRNYEGIVNRVTARFGLDASQQIRLEAEEEKLAHLPLAKTVSVEELLQYVELQDPVTRTQLRAMAAKTVCPPHKVELEALLEKQAYKEQVLAKRLTMLELLEKYPACEMKFSEFIALLPSIRPRYYSISSSPRVDEKQASITVSVVSGEAWSGYGEYKGIASNYLAELQEGDTITCFISTPQSEFTLPKDPETPLIMVGPGTGVAPFRGFVQARKQLKEQGQSLGEAHLYFGCRSPHEDYLYQEELENAQSEGIITLHTAFSRMPNQPKTYVQHVMEQDGKKLIELLDQGAHFYICGDGSQMAPAVEATLMKSYADVHQVSEADARLWLQQLEEKGRYAKDVWAG
As to B1, the “blue pigment production in culture” value is on record as “does not have the ability to produce the blue indigo-containing pigment”.
